In patent US20260201030A1 (EVOPOINT BIOSCIENCES, published 2026):
Changes are numbered by the printed parent chain. Like-named read-outs stand apart in the source and are kept apart here.

B1: 32F7A6 (antibody, V domains shown)
VH: QIQLVQSGPELRKPGETVKISCKASGYTFTAYTMGWVKQAPGKGLEWMAWINTYSGVPTYAADFKGRFAFSLETSASTAYLLINNLKNEDTATYFCARGVRGNSMDYWGQGTSVTVSS
VL: DIVETQSPSSLTVTVGERVTLSCKSSQSLLNSGNQRNYLTWSQQKPGQPPKLLIYWASTRESGVPNRFTGGGSGTYFTLTISSVQVEDLAVYYCQNTYSFPFTFGTGTKLEIK
notes: Murine monoclonal antibody purified from hybridoma supernatant
B2: 8H11A10 (antibody, V domains shown)
VH: QVQLKESGPVLVAPSQSLSITCTVSGFSLTNYGVHWVRQPPGKGLEWLGVIWSGGRTNYNSALMSRLSISKDNSKSQVFLKMNSLQTDDTAMYYCAKRDGIYGDYWGQGTSVTVSS
VL: DIVETQSPSSLTVTAGEKVTMSCKSSQSLLNSGNQKNYLTWYQQKPGQSPKLLIYWASTRESGVPDRFTGSGFGTDFTLTISSVQAEDLAVYYCQNDYIYPLTFGAGTKLELK
notes: Murine monoclonal antibody
B3: 23F2F2 (antibody, V domains shown)
VH: QVQLKESGGGLVQPGGSMKLSCAASGFTFSDAWMNWVRQSPEKGLEWVAEIRNKADYHATHYVESVTGRFTISRDDSKSSVYLQMNRLRAEDTGIYYCTRNYGSRFDYWGQGTTLTVSS
VL: B2 VL with K36R, Q48H, S49P, F73S, I81V, S82T, I99F, T103A, A106T
notes: as for B1
B4: 1A6G10 (antibody, V domains shown)
VH: QVQLKESGGGLVKPGGSLKLSCAASGFTFSSYAMSWVRQTPEKRLEWVAAIHSNGGSTYNSDTMRDRFTISRDHAKNTLYLQMSSLRSEDTALYYCGRQSFGNALDYWGQGTSVTVSS
VL: DIQMTQSPSSLTVTAGEKVTLTCKSSQSLLNSGNQKNYLTWYQQKPGQPPKLLIYWASTRESGVPDRFTGSGSGTFFTLTISSVQAEDLAVYFCQNDYVYPFTFGAGTQLELK
notes: Murine monoclonal antibody purified from hybridoma supernatant; also called 1A6G11
B5: 40G11H2 (antibody, V domains shown)
VH: EVQLQQSGAELARPGASVKLSCKASGYTFTSYGIRWVKQRTGQGLEWIGEIYPRGGNTYYDEKFKGKATLTADKSSSTAYMGLRSLTSEDSAVYFCARADYGNSFAYWGQGTLVTVSA
VL: DIVMTQSPSSLTVTAREKVTMSCKSSQSLLNSGNQKNYLTWYHQKPGQPPKLLIYWASTRESGVPDRFTGSGSGTDFTLTISSVQAEDLAVYFCQNAYFYPFTFGTGTKLEIK
notes: Murine monoclonal antibody
B6: 25C7A5-HZ2 (antibody, human IgG1, kappa)
heavy: not shown
light: EIVLTQSPATLSLSPGERATLSCKASENVKTYVSWYQQKPGQSPRLLIYEASNRYTGVPARFSGSGSATDFTLTISSLEPEDFAVYFCGQTYSFPPTFGQGTKVEIKRTVAAPSVFIFPPSDEQLKSGTASVVCLLNNFYPREAKVQWKVDNALQSGNSQESVTEQDSKDSTYSLSSTLTLSKADYEKHKVYACEVTHQGLSSPVTKSFNRGEC
notes: Humanized IgG1/kappa
B7: ADC formed by conjugation of 25C7A5-HZ1 (antibody, human IgG1, kappa)
heavy: not shown
light: B6 light
modifications: toxin linker conjugated to cysteine sulfhydryl groups after TCEP reduction (positions not given); toxin linker conjugated to cysteine sulfhydryl groups after TCEP reduction (positions not given); DAR 6.82 (B82 batch) or 7.97 (B81 batch)
notes: also called conjugated 25C7A5-HZ1; 25C7A5-HZ1-B82
B8: ADC formed by conjugation of 25C7A5-HZ2 (antibody, human IgG1, kappa)
heavy: not shown
light: B6 light
modifications: toxin linker conjugated to cysteine sulfhydryl groups after TCEP reduction (positions not given); toxin linker conjugated to cysteine sulfhydryl groups after TCEP reduction (positions not given); DAR 7.10
notes: The label B82 is not explained; also called conjugated 25C7A5-HZ2; 25C7A5-HZ2-B82
B9: 2D3A11 (antibody, V domains shown)
VH: EVQLQQSGPELVKPGASVRMSCKASGYTFTSYVVHWVKQKPGQGLEWIGYINPYNADSKYNERFKGKATLTSDKSSNSAYMELSSLTSEDSAVYYCSRSYYGNSFDVWGAGTTVTVSS
VL: DIVMTQSPSSLTVTTGEKVTMSCKSSQSLLNSGNQKNYLTWYQQKPGQSPKLLFFWASTRQSGVPDRFTGSGSGTYFTLTISSVQAEDLAVYYCQNDYYFPFTFGTGTKLEIK
notes: as for B1
B10: 25C7A5 (antibody, V domains shown)
VH: EVQLQQPGAELVKPGTSVKLSCKASGYTFTNYWLHWVRQRPGQGLEWIGMMHPISGSSNNNERFKSKATLTVDKSSTTAYMQLSRMTSEDSAVYYCARGLLSAMDYWGQGTSVTVSS
VL: CIVLTQSPKSMSMSVGERVTLSCKASENVKTYVSWYQQRPEQSPKLLIYEASNRYTGVPDRFTGSGSATVFTLTISSVQTEDLANYFCGQTYSFPPTFGSGTKLEIK
notes: as for B1

Columns and labels:
[1] = target: T1, human Claudin18.2 (human, UniProt P56856-2 1-261); assay: cell-based ELISA on fixed HEK293T-Claudin18.2 (human) cells
T1 construct: whole, on cells; also called CLDN18.2; HEK293T-Claudin18.2 (human)
Procedure: (§1) The affinity of the anti-human Claudin18.2 murine monoclonal antibodies was evaluated by cell-based ELISA. The experimental procedures were as follows: The day before the experiment, HEK293T-Claudin18.2 (human) cells were plated in a 96-well plate at 5×10⁴ cells/well. On the day of the experiment, the supernatant was removed, the cells in each well were washed once with 300 μL of PBS, and 100 μL of 4% paraformaldehyde was added to each well for fixation at room temperature for 20 min. Paraformaldehyde was then removed, and the cells in each well were washed twice with 300 μL of PBS. 100 μL of 2% BSA (in PBS) was added to each well, and the mixture was blocked at 37° C. for 2 h. After removing the blocking solution, each antibody subjected to gradient dilution (diluted with 2% BSA (in PBS), starting at […], in a 3-fold gradient, for a total of 11 concentration points) was added to the plate at 100 μL/well, and the mixture was incubated at 37° C. for 2 h. The supernatant was removed, and the cells in each well were washed three times with 300 μL of PBST. 100 μL of an anti-mouse IgG HRP secondary antibody (Jackson, cat #115-035-003) in 2% BSA was added to each well, and the mixture was incubated at 37° C. for 1 h. The secondary antibody was then removed, and the cells in each well were washed five times with 300 μL of PBST, followed by the addition of 100 μL of a TMB substrate (Huzhou InnoReagents Co., Ltd.) per well for color development for 5-20 min. The reaction was stopped by adding 50 μL of 2 N HCl to each well, and OD_{450 nm} values were read on a microplate reader (manufacturer: MD, model: SpectraMax). The values obtained were plotted by GraphPad Prism to calculate the EC₅₀ value.

[2] = target: T2, human Claudin18.1 (human, UniProt P56856 1-261); assay: FACS on HEK293T-Claudin18.1 (human) cells, antibody 50 µg/mL
T2 construct: whole, on cells; also called CLDN18.1; HEK293T-Claudin18.1 (human)
Procedure: The specificity of the anti-human Claudin18.2 murine monoclonal antibodies was evaluated by flow cytometry (FACS). The experimental procedures were as follows: The adherent cultured HEK293T-Claudin18.1 (human) cells were digested, collected by centrifugation, and washed three times with pre-cooled PBS. The cells were resuspended in 1% BSA (in PBS) and added to a 96-well pointed bottom plate at 3×10⁵ cells/well, with a volume of 50 μL per well. Each test antibody was diluted to 100 μg/mL with […] (in PBS) and added to the cells at 50 μL/well to achieve a final antibody concentration of 50 μg/mL. The mixture was well mixed and incubated at 4° C. for 1 h. The cells were collected by centrifugation, washed three times with pre-cooled PBS, and resuspended in 50 μL of 1% BSA (in PBS). 1 μL of a fluorescent secondary antibody (Biolegend, cat #405308) was added to each well, and the mixture was well mixed and incubated at 4° C. for 0.5 h. The cells were collected by centrifugation, washed three times with pre-cooled PBS, resuspended in 200 μL of PBS, and assayed on a machine (flow cytometer model: Sony-LE-SA3800GA). The APC fluorescence signal value was obtained, and the gate was set using an isotype control antibody as a negative control to obtain the percentage of positively stained cells (positive rate (0%)).

[3] = target: T2, human Claudin18.1; assay: FACS on HEK293T-Claudin18.1 (human) cells
[4] = target: T1, human Claudin18.2; assay: cell-based ELISA on NUGC4 cells (endogenous human Claudin18.2)
[5] = target: T2, human Claudin18.1; assay: FACS on HEK293T-Claudin18.1 (human) cells, antibody 50 µg/mL; remark: listed apart in the source
Procedure: The specificity of the anti-human Claudin18.2 humanized monoclonal antibodies was determined by flow cytometry (FACS). The experimental procedures were as follows: HEK293T-Claudin18.1 (human) cells were digested, collected by centrifugation, washed three times with pre-cooled PBS, resuspended in 1% BSA (in PBS), and added to a 96-well pointed bottom plate at 3×10⁵ cells/well. Each test antibody with a final concentration of 50 μg/mL was added, and the mixture was incubated at 4° C. for 1 h. The cells were washed three times with pre-cooled PBS, and then 1 μL of a fluorescent secondary antibody (APC: Biolegend-410712 or PE: BioLegend-410708) was added to each well. The mixture was incubated at 4° C. for 0.5 h, and the cells were washed three times with pre-cooled PBS, then resuspended, and assayed on a flow cytometer. For reference, anti-human Claudin18.1 positive control antibodies (positive control antibody-1 and positive control antibody-2) were included in the experiment.

[6] = target: T1, human Claudin18.2; assay: FACS on HEK293T-Claudin18.2 (human) cells
Procedure: The affinity of the anti-human Claudin18.2 humanized antibodies was detected by flow cytometry. The experimental procedures were as follows: The adherent cultured HEK293T-Claudin18.2 (human), NUGC4-Claudin18.2 (human) and NUGC4 cells were digested, collected by centrifugation, and washed three times with pre-cooled PBS. The cells were resuspended in 1% BSA (in PBS) and added to a 96-well pointed bottom plate at 3×10⁵ cells/well, with a volume of 50 μL per well. Each test antibody was diluted with 1% BSA (in PBS) (starting at 100 μg/mL, diluted in a 3-fold gradient, for 10 concentration points). The test antibody subjected to gradient dilution was added to the cells at 50 μL/well, and the mixture was well mixed and incubated at 4° C. for 1 h. The cells were collected by centrifugation, washed three times with pre-cooled PBS, and resuspended in 50 μL of 1% BSA (in PBS). 1 μL of a fluorescent secondary antibody (Biolegend-410712) was added to each well, and the mixture was well mixed and incubated at 4° C. for 0.5 h. The cells were collected by centrifugation, washed three times with pre-cooled PBS, resuspended in 200 μL of PBS, and assayed on a machine.

[7] = target: T1, human Claudin18.2; assay: cell-based ELISA (OD450) on NUGC4 cells (endogenous human Claudin18.2)
[8] = target: T1, human Claudin18.2; assay: cell-based ELISA on L929-Claudin18.2 (human) cells
[9] = target: T1, human Claudin18.2; assay: cell-based or functional assay
[10] = target: T1, human Claudin18.2; assay: cell-based ELISA on HEK293T-Claudin18.2 (human) cells
Procedure: as §1, with “100 μL of an anti-mouse IgG HRP secondary antibody (Jackson, cat #115-035-003) in 2% BSA was added to each well, and the mixture was incubated at 37° C. for 1 h. The secondary antibody was then removed, and the cells in each well were washed five times with 300 μL of PBST, followed by the addition of 100 μL of a TMB substrate (Huzhou InnoReagents Co., Ltd.) per well for color development for 5-20 min.” left out, “The values obtained were plotted by GraphPad Prism to calculate the EC₅₀ value.” left out
The affinity of the anti-human Claudin18.2 humanized monoclonal antibodies was determined by cell-based ELISA. […]

[11] = target: T1, human Claudin18.2; assay: cell-based ELISA on L929-claudin 18.2 (human) and NUGC4 cells, ADC

| Binder | EC50 [1] [mg/L] | Mean APC fluorescence signal value [2] | Positive rate (%) [2] [%] | binding result [3] | further results |
| --- | --- | --- | --- | --- | --- |
| B1 | 0.0024 | 411 | 0 | – | – |
| B2 | 0.0123 | 175 | 1.21 | no binding (tested: 50 µg/mL) | – |
| B3 | 0.00602 | 222 | 2.16 | no binding (tested: 50 µg/mL) | – |
| B4 | 0.00502 | 111 | 0.16 | no binding (tested: 50 µg/mL) | – |
| B5 | 0.00738 | 160 | 0.98 | no binding (tested: 50 µg/mL) | – |
| B6 | – | – | – | – | EC50 [4]: 0.122 mg/L; Positive rate (%) [5]: 0.55%; EC50 [6]: 0.293 mg/L; Maximum signal value [6]: 119000; Maximum signal value [7]: 0.313; EC50 [8]: 0.0148 mg/L; ADCC activity EC50 (Jurkat-NFAT-CD16a luciferase reporter, HEK293T-Claudin18.2 (human) target cells) [9]: 0.0488 mg/L; CDC activity EC50 (guinea pig serum killing, CCK8, HEK293T-Claudin18.2 (human) cells) [9]: 3.28 mg/L; EC50 [10]: 0.0112 mg/L |
| B7 | – | – | – | – | binding result [11]: binds |
| B8 | – | – | – | – | binding result [11]: binds |
| B9 | 0.00814 | 134 | 0.25 | no binding (tested: 50 µg/mL) | – |
| B10 | 0.0105 | 123 | 0.87 | no binding (tested: 50 µg/mL) | – |
